Source: paper PMC9482650, “Quantitative fragmentomics allow affinity mapping of interactomes” (Nature Communications, 2022)
Numbering of substitutions follows the chain as printed.

T1: NHERF3_3, Q5T2W1
T1 sequence (Q5T2W1 238-333, limits assumed, looked up): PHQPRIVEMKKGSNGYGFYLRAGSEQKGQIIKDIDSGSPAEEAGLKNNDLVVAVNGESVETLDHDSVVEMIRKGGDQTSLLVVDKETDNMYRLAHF

T2: NHERF3_1, Q5T2W1
T2 sequence (Q5T2W1 4-100, limits assumed, looked up): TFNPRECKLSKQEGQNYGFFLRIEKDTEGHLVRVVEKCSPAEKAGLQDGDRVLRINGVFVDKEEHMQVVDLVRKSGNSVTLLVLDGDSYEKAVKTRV

T3: GRIP1_4, Q9Y3R0
T3 sequence (Q9Y3R0 467-571, limits assumed, looked up): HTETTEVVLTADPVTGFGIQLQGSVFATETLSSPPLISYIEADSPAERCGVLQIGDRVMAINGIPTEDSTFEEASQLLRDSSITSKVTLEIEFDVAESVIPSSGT

T4: HTRA4, P83105
T4 sequence (P83105 378-476, limits assumed, looked up): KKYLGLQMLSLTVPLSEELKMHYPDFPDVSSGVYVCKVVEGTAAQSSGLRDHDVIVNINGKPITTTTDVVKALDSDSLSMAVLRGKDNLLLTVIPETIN

T5: APBA2_2, Q99767
T5 sequence (Q99767 654-744, limits assumed, looked up): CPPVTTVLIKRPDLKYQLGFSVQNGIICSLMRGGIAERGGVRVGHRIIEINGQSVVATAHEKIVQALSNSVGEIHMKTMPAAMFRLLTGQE

T6: RAPGEF6, Q8TEU7
T6 sequence (Q8TEU7 525-625, limits assumed, looked up): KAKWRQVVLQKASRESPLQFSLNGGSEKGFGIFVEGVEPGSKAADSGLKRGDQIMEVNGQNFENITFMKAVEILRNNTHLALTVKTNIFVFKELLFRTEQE

T7: APBA1_1, Q02410
T7 sequence (Q02410 651-752, limits assumed, looked up): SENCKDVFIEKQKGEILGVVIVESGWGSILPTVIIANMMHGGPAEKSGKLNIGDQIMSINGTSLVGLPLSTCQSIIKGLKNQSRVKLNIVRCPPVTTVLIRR

T8: FRMPD1, Q5SYB0
T8 sequence (Q5SYB0 52-145, limits assumed, looked up): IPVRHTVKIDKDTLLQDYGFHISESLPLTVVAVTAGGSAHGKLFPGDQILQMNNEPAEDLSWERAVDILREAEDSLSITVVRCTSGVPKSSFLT

T9: GRIP1_5, Q9Y3R0
T9 sequence (Q9Y3R0 568-668, limits assumed, looked up): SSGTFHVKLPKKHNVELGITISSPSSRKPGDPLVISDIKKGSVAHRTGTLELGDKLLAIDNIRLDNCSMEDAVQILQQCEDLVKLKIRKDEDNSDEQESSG

T10: APBA1_2, Q02410
T10 sequence (Q02410 742-832, limits assumed, looked up): T5 sequence (Q99767 654-744, limits assumed, looked up) with K10R, K15R, A59P, Q65H, A66I, S70A, F84Y, G89A

T11: SNTB1, Q13884
T11 sequence (Q13884 107-205, limits assumed, looked up): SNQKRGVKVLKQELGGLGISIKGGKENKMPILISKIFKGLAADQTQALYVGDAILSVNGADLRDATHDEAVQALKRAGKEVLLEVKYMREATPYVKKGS

T12: LIN7B, Q9HAP6
T12 sequence (Q9HAP6 88-185, limits assumed, looked up): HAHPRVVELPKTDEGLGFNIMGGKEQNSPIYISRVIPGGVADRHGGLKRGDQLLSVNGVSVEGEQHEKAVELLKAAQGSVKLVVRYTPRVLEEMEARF


How the values were obtained:
Assay in all cases: holdup assay
Parameters in all cases: key: below the threshold = too weak to quantify, mostly under pKd 3.1 to 4
Conditions in all cases: plain residues with an end cap or a label only (N-terminal biotin on a linker: ado-ado)
NHERF3_3, Q5T2W1 = molecular target: T1, NHERF3_3, Q5T2W1
NHERF3_1, Q5T2W1 = molecular target: T2, NHERF3_1, Q5T2W1
GRIP1_4, Q9Y3R0 = molecular target: T3, GRIP1_4, Q9Y3R0
DLG2_3, Q15700 = molecular target: DLG2_3, Q15700
FRMPD3, Q5JV73 = molecular target: FRMPD3, Q5JV73
HTRA4, P83105 = molecular target: T4, HTRA4, P83105
APBA2_2, Q99767 = molecular target: T5, APBA2_2, Q99767
LDB3, O75112 = molecular target: LDB3, O75112
GRASP, Q7Z6J2 = molecular target: GRASP, Q7Z6J2
GRIP2_6, Q9C0E4 = molecular target: GRIP2_6, Q9C0E4
RAPGEF6, Q8TEU7 = molecular target: T6, RAPGEF6, Q8TEU7
APBA1_1, Q02410 = molecular target: T7, APBA1_1, Q02410
LAP2, Q96RT1 = molecular target: LAP2, Q96RT1
GOPC, Q9HD26 = molecular target: GOPC, Q9HD26
DLG1_1, Q12959 = molecular target: DLG1_1, Q12959
Inadl_6, Q8NI35 = molecular target: Inadl_6, Q8NI35
DLG4_1, P78352 = molecular target: DLG4_1, P78352
PARD3_3, Q8TEW0 = molecular target: PARD3_3, Q8TEW0
FRMPD1, Q5SYB0 = molecular target: T8, FRMPD1, Q5SYB0
GRIP1_5, Q9Y3R0 = molecular target: T9, GRIP1_5, Q9Y3R0
APBA1_2, Q02410 = molecular target: T10, APBA1_2, Q02410
GORASP2, Q9H8Y8 = molecular target: GORASP2, Q9H8Y8
MAGI2_2, Q86UL8 = molecular target: MAGI2_2, Q86UL8
SNTB1, Q13884 = molecular target: T11, SNTB1, Q13884
MAST1, Q9Y2H9 = molecular target: MAST1, Q9Y2H9
LIN7B, Q9HAP6 = molecular target: T12, LIN7B, Q9HAP6

Chain of DLG4_1, P78352 (P78352 62-152): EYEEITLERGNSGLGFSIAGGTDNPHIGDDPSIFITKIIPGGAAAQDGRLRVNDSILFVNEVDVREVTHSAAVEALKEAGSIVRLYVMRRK
Chain of MAGI2_2, Q86UL8 (Q86UL8 410-522): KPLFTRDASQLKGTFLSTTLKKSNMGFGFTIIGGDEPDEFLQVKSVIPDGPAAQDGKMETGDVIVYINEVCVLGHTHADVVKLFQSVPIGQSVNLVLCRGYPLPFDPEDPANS
Chain of LAP2, Q96RT1 (Q96RT1 other isoform, or with tags, fused parts or gaps): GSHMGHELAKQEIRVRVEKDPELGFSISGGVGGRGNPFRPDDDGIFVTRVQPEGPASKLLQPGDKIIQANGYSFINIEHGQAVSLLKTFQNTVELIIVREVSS
Chain of GRIP2_6, Q9C0E4 (Q9C0E4 648-740): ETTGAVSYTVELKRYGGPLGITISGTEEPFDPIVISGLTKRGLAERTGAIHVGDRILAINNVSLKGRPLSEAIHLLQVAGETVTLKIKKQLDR
Chain of PARD3_3, Q8TEW0 (Q8TEW0 582-685): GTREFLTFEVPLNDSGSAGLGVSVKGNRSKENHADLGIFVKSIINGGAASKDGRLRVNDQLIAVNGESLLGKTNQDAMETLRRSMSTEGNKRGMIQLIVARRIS
Chain of MAST1, Q9Y2H9 (Q9Y2H9 962-1065): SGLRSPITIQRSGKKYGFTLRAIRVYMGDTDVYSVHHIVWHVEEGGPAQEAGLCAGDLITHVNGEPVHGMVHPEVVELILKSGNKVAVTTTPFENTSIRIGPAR
Chain of GRASP, Q7Z6J2 (Q7Z6J2 96-193): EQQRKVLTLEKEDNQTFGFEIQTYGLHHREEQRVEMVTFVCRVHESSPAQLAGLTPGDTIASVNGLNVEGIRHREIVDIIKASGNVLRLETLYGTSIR
Chain of Inadl_6, Q8NI35 (Q8NI35 1058-1167): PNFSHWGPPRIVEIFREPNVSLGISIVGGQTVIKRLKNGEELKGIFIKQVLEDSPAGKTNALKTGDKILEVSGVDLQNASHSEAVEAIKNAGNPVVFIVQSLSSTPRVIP
Chain of LDB3, O75112 (O75112 1-94): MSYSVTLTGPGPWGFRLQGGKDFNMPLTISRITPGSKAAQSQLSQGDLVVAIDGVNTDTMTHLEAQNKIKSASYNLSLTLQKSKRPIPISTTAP
Chain of FRMPD3, Q5JV73 (Q5JV73 12-100): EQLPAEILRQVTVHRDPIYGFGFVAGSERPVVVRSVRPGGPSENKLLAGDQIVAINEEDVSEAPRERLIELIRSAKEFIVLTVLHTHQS

Row | pKd (NHERF3_3, Q5T2W1) | pKd (NHERF3_1, Q5T2W1) | pKd (GRIP1_4, Q9Y3R0) | pKd (DLG2_3, Q15700) | pKd (FRMPD3, Q5JV73) | pKd (HTRA4, P83105) | pKd (APBA2_2, Q99767) | pKd (LDB3, O75112) | pKd (GRASP, Q7Z6J2) | pKd (GRIP2_6, Q9C0E4) | pKd (RAPGEF6, Q8TEU7) | pKd (APBA1_1, Q02410) | pKd (LAP2, Q96RT1) | pKd (GOPC, Q9HD26) | pKd (DLG1_1, Q12959) | pKd (Inadl_6, Q8NI35) | pKd (DLG4_1, P78352) | pKd (PARD3_3, Q8TEW0) | pKd (FRMPD1, Q5SYB0) | pKd (GRIP1_5, Q9Y3R0) | Binder | other results
1 | below the threshold | 3.56 | below the threshold | below the threshold | below the threshold | below the threshold | below the threshold | below the threshold | 3.91 | below the threshold | below the threshold | below the threshold | 4.46 | 3.67 | 3.74 | below the threshold | 3.99 | below the threshold | below the threshold | below the threshold | PDSNPEESSV [SEMA4C, Q9C0C4] | pKd (APBA1_2, Q02410): 3.8; pKd (GORASP2, Q9H8Y8): below the threshold; pKd (MAGI2_2, Q86UL8): below the threshold; pKd (SNTB1, Q13884): 4.46; pKd (MAST1, Q9Y2H9): 4.86; pKd (LIN7B, Q9HAP6): below the threshold
2 | below the threshold | 4.46 | below the threshold | below the threshold | below the threshold | below the threshold | below the threshold | below the threshold | below the threshold | below the threshold | below the threshold | below the threshold | below the threshold | below the threshold | below the threshold | below the threshold | below the threshold | below the threshold | below the threshold | below the threshold | ASGLDKRDYV [CLDN9, O95484] | pKd (APBA1_2, Q02410): 4.35; pKd (GORASP2, Q9H8Y8): below the threshold; pKd (MAGI2_2, Q86UL8): below the threshold; pKd (SNTB1, Q13884): below the threshold; pKd (MAST1, Q9Y2H9): below the threshold; pKd (LIN7B, Q9HAP6): below the threshold
3 | below the threshold | 5.27 | below the threshold | below the threshold | below the threshold | below the threshold | below the threshold | below the threshold | below the threshold | below the threshold | below the threshold | below the threshold | below the threshold | 3.76 | below the threshold | 3.76 | 3.52 | 3.64 | below the threshold | below the threshold | NPETRDETQL [KCNT1, Q5JUK3] | pKd (APBA1_2, Q02410): below the threshold; pKd (GORASP2, Q9H8Y8): below the threshold; pKd (MAGI2_2, Q86UL8): below the threshold; pKd (SNTB1, Q13884): 4.35; pKd (MAST1, Q9Y2H9): 4.97; pKd (LIN7B, Q9HAP6): below the threshold
